Assay results reported in article PMC9949253.

Biological target: BTN3A1 full intracellular domain (BFI) (human)
Test: ITC; 300 μM BTN2A1 ID271 titrated into a mixture of 60 μM BTN3A1 BFI and 120 μM 4-M-HMBPP; nanoITC, independent fit (NanoAnalyze)

BTN2A1 intracellular domain (ID271) (domain or fragment)
KD with 4-M-HMBPP: 190 µM | N with 4-M-HMBPP: 0.08 | dH with 4-M-HMBPP: -23.9 kcal/mol
